From the PETadex activity labels

Key:
BHET [1] = details: 50 °C; part of the chain shown
BHET [2] = test: Proxy for plastic degradation [Released monomer concentration (HPLC/LC-MS) (BHET)]; details: pH 7

B1: unnamed (protein)
chain: MNFPRASRLMQAAVLGGLMAVSAAATAQTNPYARGPNPTAASLEASAGPFTVRSFTVSRPSGYGAGTVYYPTNAGGTVGAIAIVPGYTARQSSIKWWGPRLASHGFVVITIDTNSTLDQPSSRSSQQMAALRQVASLNGTSSSPIYGKVDTARMGVMGHSMGGGGSLISAANNPSLKAAAPQAPWDSSTNFSSVTVPTLIFACENDSIAPVNSSALPIYDSMSRNAKQFLEINGGSHFCANSGNSNQALIGKKGVAWMKRFMDNDTRYSTFACENPNSTRVSDFRTANCS
Km (BHET [1]): 1610 µM | kcat (BHET [1]): 540 s⁻¹ | kcat/Km (BHET [1]): 335000 M⁻¹ s⁻¹

B2: unnamed (protein)
chain: MSMTASAYALAQSSPYAKGPDPTTSSLEAATGSFSTRTTTVSRLSASGFGGGTIYYPTASGSYGAIAISPGFTAYQSSISWLGTRLASRGFVVITIDTITTSDQPDSRGRQLKAALDKVVSLSRTAGNVLYGKVDANRLAVAGHSMGGGGTLAAARDNPSLKAAVPLAPWHTTKFFSTIRVPTLIIGGESDTIAPVASHSIPFYTSSLSSIAKGYMELNNASHFFPQTSTYYPLVGKYMISWFKRFVDEDTRYSPFLCGAPHQSDVANFLRVSDYRENCPY
Proxy for plastic degradation (BHET [2]): 1%
